{
  "source": "patent US20060177442A1",
  "about": "(Bristol-Myers Squibb, published 2006)",
  "binders": {"B1": {"name": "fully human anti-CD30 monoclonal antibody 5F11 (antibody, V domains shown)", "VH": "QVQLQQWGAGLLKPSETLSLTCAVYGGSFSAYYWSWIRQPPGKGLEWIGDINHGGGTNYNPSLKSRVTISVDTSKNQFSLKLNSVTAADTAVYYCASLTAYWGQGSLVTVSS", "VL": "DIQMTQSPTSLSASVGDRVTITCRASQGISSWLTWYQQKPEKAPKSLIYAASSLQSGVPSRFSGSGSGTDFTLTISSLQPEDFATYYCQQYDSYPITFGQGTRLEIK"}},
  "target": "T1, CD30 on Hodgkin-derived cell lines (L540, L428) (human, UniProt P28908 19-595)",
  "T1 sequence (looked up)": "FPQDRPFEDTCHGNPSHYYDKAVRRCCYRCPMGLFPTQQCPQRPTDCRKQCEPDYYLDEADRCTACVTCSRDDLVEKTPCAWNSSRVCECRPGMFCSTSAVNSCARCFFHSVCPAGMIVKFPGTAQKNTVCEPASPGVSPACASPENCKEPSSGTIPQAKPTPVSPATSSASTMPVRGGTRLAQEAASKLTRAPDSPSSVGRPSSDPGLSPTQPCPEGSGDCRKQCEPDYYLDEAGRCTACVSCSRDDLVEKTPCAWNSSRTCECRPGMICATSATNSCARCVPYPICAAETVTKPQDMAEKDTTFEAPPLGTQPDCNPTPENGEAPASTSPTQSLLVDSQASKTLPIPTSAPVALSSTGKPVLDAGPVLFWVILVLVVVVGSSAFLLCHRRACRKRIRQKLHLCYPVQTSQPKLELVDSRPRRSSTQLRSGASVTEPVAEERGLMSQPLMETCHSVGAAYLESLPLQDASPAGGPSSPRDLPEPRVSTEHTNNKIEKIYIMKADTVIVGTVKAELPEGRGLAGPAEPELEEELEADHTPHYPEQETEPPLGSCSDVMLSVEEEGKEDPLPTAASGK",
  "test": "cell-based or functional assay",
  "data": [
    {"binder": "B1", "values": [
      {"measurement": "NF-κB-responsive luciferase reporter gene in transfected L428 cells", "value": "~2", "unit": "fold"}
    ]}
  ]
}
